One series has as its target T1, GDAP1∆319-358 (Homo sapiens, UniProt Q8TB36).
T1 construct: C-terminally truncated (residues 319-358 deleted; hydrophobic and transmembrane region), alpha-loop insertion kept; N-terminal tag cut with TEV; E. coli BL21(DE3); monomer/dimer equilibrium
T1 sequence (Q8TB36 1-318): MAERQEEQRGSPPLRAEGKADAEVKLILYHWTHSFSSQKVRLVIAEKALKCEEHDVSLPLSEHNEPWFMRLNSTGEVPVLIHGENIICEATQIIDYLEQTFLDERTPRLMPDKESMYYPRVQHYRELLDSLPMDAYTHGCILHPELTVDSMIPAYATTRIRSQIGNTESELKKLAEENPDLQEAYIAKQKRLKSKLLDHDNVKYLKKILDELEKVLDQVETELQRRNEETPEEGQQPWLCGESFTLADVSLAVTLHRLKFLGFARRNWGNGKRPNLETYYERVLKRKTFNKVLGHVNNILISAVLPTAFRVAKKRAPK
Kind of series: differential scanning fluorimetry (SYPRO Orange). The series is classed as binding. As to conditions: pH 7.5, 300 mM NaCl, 2% DMSO; HA titrated up to 250 µM.

The target in a further series is T2, GDAP1∆295-358 (Homo sapiens, UniProt Q8TB36).
T2 construct: C-terminally truncated (residues 295-358 deleted), alpha-loop insertion kept; N-terminal tag cut with TEV; E. coli BL21(DE3); monomer/dimer equilibrium
T2 sequence (Q8TB36 1-294): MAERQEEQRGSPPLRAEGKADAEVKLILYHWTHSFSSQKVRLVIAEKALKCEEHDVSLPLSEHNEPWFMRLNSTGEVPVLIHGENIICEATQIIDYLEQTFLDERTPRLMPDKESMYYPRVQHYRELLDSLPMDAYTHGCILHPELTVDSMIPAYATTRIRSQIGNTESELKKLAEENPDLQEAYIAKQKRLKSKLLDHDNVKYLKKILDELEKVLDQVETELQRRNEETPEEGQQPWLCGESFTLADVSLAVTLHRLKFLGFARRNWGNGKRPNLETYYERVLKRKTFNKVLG
Kind of series: isothermal titration calorimetry. The series is classed as binding. From the text:
isothermal titration calorimetry on GDAP1∆295-358

Series [1] concerns the molecule itself. Kind of series: SEC-SAXS; 50 µL of protein at 8.5-10 mg/ml injected into BioSEC3-300 or Superdex 75 10/300 GL increase; 25 mM HEPES pH 7.5, 300 mM NaCl; +15 °C; GDAP1∆295-358 and GDAP1∆319-358 also with hexadecanedioic acid (HA), which gave a higher monomer fraction.
Series [2] concerns the molecule itself. Kind of series: non-reducing SDS-PAGE; SEC eluates of purified proteins on a non-reducing gel (GDAP1L1 also on a reducing gel); shows the covalent (disulfide) dimer.
Series [3] concerns the molecule itself. Put plainly: SEC-MALS; Superdex 75 10/300 GL increase in SEC buffer (25 mM HEPES pH 7.5, 300 mM NaCl); protein 1-10 mg/ml, 15-150 µg injected.

As for `O=C(O)CCCCCCCCCCCCCCC(=O)O` [hexadecanedioic acid], the dTm at GDAP1∆319-358 is ~ 3 °C. The molecule also returned an equilibrium dissociation constant (Kd) on GDAP1∆295-358 of 2000 ± 800 nM.

B1: GDAP1∆319-358 (domain or fragment, human, UniProt Q8TB36 1-318, looked up)
chain: MAERQEEQRGSPPLRAEGKADAEVKLILYHWTHSFSSQKVRLVIAEKALKCEEHDVSLPLSEHNEPWFMRLNSTGEVPVLIHGENIICEATQIIDYLEQTFLDERTPRLMPDKESMYYPRVQHYRELLDSLPMDAYTHGCILHPELTVDSMIPAYATTRIRSQIGNTESELKKLAEENPDLQEAYIAKQKRLKSKLLDHDNVKYLKKILDELEKVLDQVETELQRRNEETPEEGQQPWLCGESFTLADVSLAVTLHRLKFLGFARRNWGNGKRPNLETYYERVLKRKTFNKVLGHVNNILISAVLPTAFRVAKKRAPK
notes: The constructs were put into pTH27 (N-terminal His6) and pDEST-Trx (N-terminal thioredoxin); Tag cleaved with TEV protease; also called ganglioside-induced differentiation-associated protein 1, C-terminally truncated; source: E. coli BL21 (DE3), purified (Ni-NTA, TEV cleavage, SEC); not shown: His6, N-terminal, cleaved
Consider B1, for which, in series [1], the “stoichiometry N” value came out at 2.

B2: GDAP1∆303-358 Y29F (domain or fragment, human, UniProt Q8TB36 1-302, looked up)
chain: MAERQEEQRGSPPLRAEGKADAEVKLILFHWTHSFSSQKVRLVIAEKALKCEEHDVSLPLSEHNEPWFMRLNSTGEVPVLIHGENIICEATQIIDYLEQTFLDERTPRLMPDKESMYYPRVQHYRELLDSLPMDAYTHGCILHPELTVDSMIPAYATTRIRSQIGNTESELKKLAEENPDLQEAYIAKQKRLKSKLLDHDNVKYLKKILDELEKVLDQVETELQRRNEETPEEGQQPWLCGESFTLADVSLAVTLHRLKFLGFARRNWGNGKRPNLETYYERVLKRKTFNKVLGHVNNILIS
notes: Point mutant of m2, made by site-directed mutagenesis PCR; source: E. coli BL21 (DE3), purified (Ni-NTA, TEV cleavage, SEC); not shown: His6, N-terminal, cleaved
Take B2: the “stoichiometry N” value in series [2] was found to be 2.

B3: GDAP1∆303-358 (domain or fragment, human, UniProt Q8TB36 1-302, looked up)
chain: MAERQEEQRGSPPLRAEGKADAEVKLILYHWTHSFSSQKVRLVIAEKALKCEEHDVSLPLSEHNEPWFMRLNSTGEVPVLIHGENIICEATQIIDYLEQTFLDERTPRLMPDKESMYYPRVQHYRELLDSLPMDAYTHGCILHPELTVDSMIPAYATTRIRSQIGNTESELKKLAEENPDLQEAYIAKQKRLKSKLLDHDNVKYLKKILDELEKVLDQVETELQRRNEETPEEGQQPWLCGESFTLADVSLAVTLHRLKFLGFARRNWGNGKRPNLETYYERVLKRKTFNKVLGHVNNILIS
notes: The constructs were put into pTH27 (N-terminal His6) and pDEST-Trx (N-terminal thioredoxin); Tag cleaved with TEV protease; also called complete human GDAP1 core domain; source: E. coli BL21 (DE3), purified (Ni-NTA, TEV cleavage, SEC); not shown: His6, N-terminal, cleaved
Consider B3, for which the “stoichiometry N” value in series [3] stood at 2.

B4: GDAP1∆295-358 (domain or fragment, human, UniProt Q8TB36 1-294, looked up)
chain: MAERQEEQRGSPPLRAEGKADAEVKLILYHWTHSFSSQKVRLVIAEKALKCEEHDVSLPLSEHNEPWFMRLNSTGEVPVLIHGENIICEATQIIDYLEQTFLDERTPRLMPDKESMYYPRVQHYRELLDSLPMDAYTHGCILHPELTVDSMIPAYATTRIRSQIGNTESELKKLAEENPDLQEAYIAKQKRLKSKLLDHDNVKYLKKILDELEKVLDQVETELQRRNEETPEEGQQPWLCGESFTLADVSLAVTLHRLKFLGFARRNWGNGKRPNLETYYERVLKRKTFNKVLG
notes: The constructs were put into pTH27 (N-terminal His6) and pDEST-Trx (N-terminal thioredoxin); also called ganglioside-induced differentiation-associated protein 1, C-terminally truncated; GDAP1 core domain; source: E. coli BL21 (DE3), purified (Ni-NTA, TEV cleavage, SEC); not shown: His6, N-terminal, cleaved
Consider B4, for which the “stoichiometry N” value in series [1] came to 2.

Values taken from PMC7873046, “Structure of the Complete Dimeric Human GDAP1 Core Domain Provides Insights into Ligand Binding and Clustering of Disease Mutations” (Frontiers in Molecular Biosciences, 2021).
